Measured values: patent US20210009673A1, “METHODS FOR REGULATING BREAST CANCERS” (priority 2018, published 2021)

Tests used:
β-catenin = test: PTN-stimulated tyrosine phosphorylation of β-catenin in COS-7 cells (immunoprecipitation, Western blot); format: cell-based
Experimental: FIG. 1: FIG. 1 illustrates in (A) PTN stimulation of tyrosine phosphorylation of β-catenin in cells that express RPTPβ/ζ and ALK. COS7 cells transiently expressing ALK and RPTPβ/ζ were stimulated with 10 ng PTN/ml. Cell lysates were prepared and used to immunoprecipitate β-catenin. The immunoprecipitates were analyzed in Western blots probed with anti-phosphotyrosine antibodies. Lane 1, cells transfected with ALK that were not stimulated with PTN. Lane 2, cells transfected with ALK stimulated with PTN. Lane 3, cells transfected with empty vector not stimulated with PTN. Lane 4, cells transfected with empty vector stimulated with PTN. […] The immunoprecipitates were analyzed in Western blots probed with anti-phosphotyrosine antibodies. […] Cell lysates were used to immunoprecipitate β-catenin and the immunoprecipitates were analyzed in Western blots probed with anti-phospho-tyrosine antibodies and reprobed with anti-β-catenin antibodies. […] MCF-7 cells that stably express EGFR/RPTPβ/ζ not transfected with ALK were analyzed as above. […] Lysates of MCF-7 cells and lysates of MCF-7 cells stimulated with EGF were used to immunoprecipitate β-catenin and the immunoprecipitates were analyzed in Western blots probed with anti-phospho-tyrosine antibodies and separately with anti-β-catenin antibodies. […]

MCF-7 cells = test: homophilic cell-cell adhesion assay (ratio NTC/NTE); format: cell-based
Experimental: FIG. 4: FIG. 4 illustrates in: (A), β-catenin phosphorylated by ALK at tyrosine 333 decreases the association of β-catenin with cadherin. Recombinant E-cadherin serine 692 was phosphorylated with CK2 and GSK3β and incubated with recombinant GST-β-catenin, with GST-β-catenin phosphorylated in vitro by ALK, with GST-β-catenin Y333F, or with GST-β-catenin K292A, Y333F, K335A. The GST-conjugated proteins were captured with glutathione-conjugated beads and the phospho-Ser692-E-cadherin that associated with the GST-conjugated proteins was eluted and analyzed in Western blots probed with anti-β-catenin and anti-E-cadherin antibodies. […] After incubation for 20 minutes at 37° C., β-catenin was then captured with glutathione beads and, after extensive washing, eluted with SDS buffer and analyzed in Western blots with either anti-pan-cadherin antibodies, anti-phospho-tyrosine antibodies, or anti-β-catenin antibodies to determine if β-catenin phosphorylated by ALK at tyrosine 333 associates with cadherin. […] The ratio of cells dissociated in calcium-containing media (NTC) vs. the cells dissociated in calcium-free media (NTE) (a “dissociation index,” see Experimental Procedures) was measured. […] The morphological appearance was then analyzed 36 hours later and compared with cells transfected with an equal amount of control empty vector. […]

B1: pleiotrophin (protein, UniProt P21246 33-168, looked up)
Pleiotrophin: GKKEKPEKKVKKSDCGEWQWSVCVPTSGDCGLGTREGTRTGAECKQTMKTQRCKIPCNWKKQFGAECKYQFQAWGECDLNTALKTRTGSLKRALHNAECQKTVTISKPCGKLTKPKPQAESKKKKKEGKKQEKMLD
- tyrosine phosphorylation of β-catenin (β-catenin; COS-7 cells expressing RPTPβ/ζ alone): failed to stimulate
- increased tyrosine phosphorylation of β-catenin (β-catenin; COS-7 cells expressing both ALK and RPTPβ/ζ, 10 ng PTN/ml): about 3 fold
- ratio NTC/NTE (MCF-7 cells; PTN-stimulated MCF7 cells expressing both RPTPβ/ζ and ALK): about 0.38
- ratio NTC/NTE (MCF-7 cells; PTN-stimulated MCF-7 cells transfected with ALK alone): about 0.25
